Measurements: PMC3534135, “Interaction of the Transactivation Domain of B-Myb with the TAZ2 Domain of the Coactivator p300: Molecular Features and Properties of the Complex” (PLoS ONE, 2012)

Molecular target: T1, B-Myb transactivation domain (residues 275-376) (mouse, UniProt P48972 275-376)
T1 construct: also called B-Myb TAD
T1 sequence (looked up): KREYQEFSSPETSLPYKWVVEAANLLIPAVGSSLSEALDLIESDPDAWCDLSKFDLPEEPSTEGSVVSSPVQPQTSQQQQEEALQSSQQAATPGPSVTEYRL
Test: NMR titration; 15N/1H HSQC of 15N-labelled p300 TAZ2 (100 µM) without and with 100 or 200 µM unlabelled B-Myb TAD; minimal shift approach; 25°C, 600 MHz; 20 mM Bis-Tris, 100 mM NaCl, 5 mM DTT, 20 µM ZnSO4, pH 5.8; Kd estimated from intermediate exchange
Conditions: both partners purified

- Kd: 1 to 10 µM
B1: TAZ2 domain of the coactivator p300 (domain or fragment, human, UniProt Q09472 1726-1812, looked up)
chain: SPGDSRRLSIQRCIQSLVHACQCRNANCSLPSCQKMKRVVQHTKGCKRKTNGGCPICKQLIALCCYHAKHCQENKCPVPFCLNIKQK
notes: human p300, TAZ2 domain, residues 1726-1812, corresponding to murine CBP TAZ2; cloned into the NdeI and BamHI sites of pET23a; No tag is stated; also called p300 TAZ2
